As usually defined, the koff is the rate constant with which the complex falls apart. The term kon denotes a measure of how fast the partners come together.

This is an account of results in publication PMC6959147 (BioMed Research International, 2019).

B1: scFv-yeast clone 3_3 (scFv, V domains shown)
VH: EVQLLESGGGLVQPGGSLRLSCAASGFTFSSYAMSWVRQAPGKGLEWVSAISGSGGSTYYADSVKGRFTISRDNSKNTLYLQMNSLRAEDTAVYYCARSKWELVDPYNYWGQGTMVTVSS
VL: NFMLTQPHSVSESPGKTITISCTRSSGSIAGNYVQWYQQRPGSAPIIVIYEDNQRPSGVPDRFSGSIDSSSNSASLTISRLKTEDEADYYCQSYEASNVVFGGGTKLTVL
notes: as the stretch N-terminal of the HCDR3 of m4; HCDR3 of clone 3_3 (same as 10_4); as the stretch C-terminal of the HCDR3 of m4; also called 10_4; not shown: HA, C-terminal, kept
B2: scFv-yeast clone 3_14 (scFv, V domains shown)
VH: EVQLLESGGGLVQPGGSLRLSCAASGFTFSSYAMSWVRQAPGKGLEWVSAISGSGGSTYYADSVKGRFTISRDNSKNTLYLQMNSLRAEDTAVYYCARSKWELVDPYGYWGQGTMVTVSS
VL: NFMLTQPHSVSESPGKTITISCTRSSGSIAGNYVQWYQQRPGSAPIIVIYEDNQRPSGVPDRFSGSIDSSSNSASLTISRLKTEDEADYYCQSYEASNVVFGGGTKLTVL
notes: as the stretch N-terminal of the HCDR3 of m4; HCDR3 of clone 3_14 (same as 10_2); as the stretch C-terminal of the HCDR3 of m4; also called 10_2; not shown: HA, C-terminal, kept
B3: scFv-yeast clone 3_17 (scFv, V domains shown)
VH: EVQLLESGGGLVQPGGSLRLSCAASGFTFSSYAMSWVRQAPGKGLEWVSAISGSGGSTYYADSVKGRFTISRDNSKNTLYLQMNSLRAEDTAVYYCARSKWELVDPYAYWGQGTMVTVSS
VL: NFMLTQPHSVSESPGKTITISCTRSSGSIAGNYVQWYQQRPGSAPIIVIYEDNQRPSGVPDRFSGSIDSSSNSASLTISRLKTEDEADYYCQSYEASNVVFGGGTKLTVL
notes: as the stretch N-terminal of the HCDR3 of m4; HCDR3 of clone 3_17; as the stretch C-terminal of the HCDR3 of m4; not shown: HA, C-terminal, kept
B4: scFv-yeast clone 10_12 (scFv, V domains shown)
VH: not shown
VL: NFMLTQPHSVSESPGKTITISCTRSSGSIAGNYVQWYQQRPGSAPIIVIYEDNQRPSGVPDRFSGSIDSSSNSASLTISRLKTEDEADYYCQSYEASNVVFGGGTKLTVL
notes: as the stretch N-terminal of the HCDR3 of m4; HCDR3 of clone 10_12; as the stretch C-terminal of the HCDR3 of m4; not shown: HA, C-terminal, kept
B5: scFv-yeast clone 10_3 (scFv, V domains shown)
VH: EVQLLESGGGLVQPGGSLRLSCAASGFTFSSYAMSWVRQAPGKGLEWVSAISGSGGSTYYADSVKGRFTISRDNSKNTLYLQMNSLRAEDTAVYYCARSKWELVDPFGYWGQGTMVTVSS
VL: NFMLTQPHSVSESPGKTITISCTRSSGSIAGNYVQWYQQRPGSAPIIVIYEDNQRPSGVPDRFSGSIDSSSNSASLTISRLKTEDEADYYCQSYEASNVVFGGGTKLTVL
notes: as the stretch N-terminal of the HCDR3 of m4; HCDR3 of clone 10_3; as the stretch C-terminal of the HCDR3 of m4; not shown: HA, C-terminal, kept
B6: scFv-yeast clone 3_7 (scFv, V domains shown)
VH: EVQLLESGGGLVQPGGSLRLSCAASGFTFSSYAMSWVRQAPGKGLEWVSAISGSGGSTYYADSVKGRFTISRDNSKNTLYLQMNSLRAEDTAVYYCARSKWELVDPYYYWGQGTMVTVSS
VL: NFMLTQPHSVSESPGKTITISCTRSSGSIAGNYVQWYQQRPGSAPIIVIYEDNQRPSGVPDRFSGSIDSSSNSASLTISRLKTEDEADYYCQSYEASNVVFGGGTKLTVL
notes: as the stretch N-terminal of the HCDR3 of m4; HCDR3 of clone 3_7; as the stretch C-terminal of the HCDR3 of m4; not shown: HA, C-terminal, kept
B7: mAb 3_14 (IgG4 converted from scFv 3_14) (antibody, V domains shown)
VH: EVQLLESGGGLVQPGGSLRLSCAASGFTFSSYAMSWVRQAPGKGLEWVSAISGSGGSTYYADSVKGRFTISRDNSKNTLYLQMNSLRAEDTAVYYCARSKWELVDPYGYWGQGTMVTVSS
VL: NFMLTQPHSVSESPGKTITISCTRSSGSIAGNYVQWYQQRPGSAPIIVIYEDNQRPSGVPDRFSGSIDSSSNSASLTISRLKTEDEADYYCQSYEASNVVFGGGTKLTVL
notes: as the VH stretch before the HCDR3 of m14; HCDR3 of 3_14; T to S at position 1 and D to G at position 10 against the wild type; as the VH stretch after the HCDR3 of m14; as the light chain of m14; IgG4; also called IgG 3_14; source: EBNA 293 cells, cotransfected (pEU8.2 and pEU4.2), purified from the medium (protein A); copies: 2 + 2
B8: mAb 3_17 (IgG4 converted from scFv 3_17) (antibody, V domains shown)
VH: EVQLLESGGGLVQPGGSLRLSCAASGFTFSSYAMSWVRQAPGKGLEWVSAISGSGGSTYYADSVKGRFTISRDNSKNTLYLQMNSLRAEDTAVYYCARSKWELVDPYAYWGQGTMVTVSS
VL: NFMLTQPHSVSESPGKTITISCTRSSGSIAGNYVQWYQQRPGSAPIIVIYEDNQRPSGVPDRFSGSIDSSSNSASLTISRLKTEDEADYYCQSYEASNVVFGGGTKLTVL
notes: as the VH stretch before the HCDR3 of m14; HCDR3 of 3_17; T to S at position 1 and D to A at position 10 against the wild type; as the VH stretch after the HCDR3 of m14; as the light chain of m14; IgG4; also called IgG 3_17; source: EBNA 293 cells, cotransfected (pEU8.2 and pEU4.2), purified from the medium (protein A); copies: 2 + 2
B9: mAb 3_3 (IgG4 converted from scFv 3_3) (antibody, V domains shown)
VH: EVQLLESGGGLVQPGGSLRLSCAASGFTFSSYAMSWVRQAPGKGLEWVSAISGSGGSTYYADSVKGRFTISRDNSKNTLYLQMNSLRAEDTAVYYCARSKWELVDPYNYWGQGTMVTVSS
VL: NFMLTQPHSVSESPGKTITISCTRSSGSIAGNYVQWYQQRPGSAPIIVIYEDNQRPSGVPDRFSGSIDSSSNSASLTISRLKTEDEADYYCQSYEASNVVFGGGTKLTVL
notes: as the VH stretch before the HCDR3 of m14; HCDR3 of 3_3; T to S at position 1 and D to N at position 10 against the wild type; as the VH stretch after the HCDR3 of m14; as the light chain of m14; IgG4; also called IgG 3_3; source: EBNA 293 cells, cotransfected (pEU8.2 and pEU4.2), purified from the medium (protein A); copies: 2 + 2
B10: mAb 10_3 (IgG4 converted from scFv 10_3) (antibody, V domains shown)
VH: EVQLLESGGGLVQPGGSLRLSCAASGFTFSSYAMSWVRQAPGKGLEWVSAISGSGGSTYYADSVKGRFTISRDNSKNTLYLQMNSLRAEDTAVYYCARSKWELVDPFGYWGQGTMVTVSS
VL: NFMLTQPHSVSESPGKTITISCTRSSGSIAGNYVQWYQQRPGSAPIIVIYEDNQRPSGVPDRFSGSIDSSSNSASLTISRLKTEDEADYYCQSYEASNVVFGGGTKLTVL
notes: as the VH stretch before the HCDR3 of m14; HCDR3 of 10_3; T to S at position 1, Y to F at position 9 and D to G at position 10 against the wild type; as the VH stretch after the HCDR3 of m14; as the light chain of m14; IgG4; also called IgG 10_3; antibody 10_3; source: EBNA 293 cells, cotransfected (pEU8.2 and pEU4.2), purified from the medium (protein A); copies: 2 + 2
B11: mAb 3_7 (IgG4 converted from scFv 3_7) (antibody, V domains shown)
VH: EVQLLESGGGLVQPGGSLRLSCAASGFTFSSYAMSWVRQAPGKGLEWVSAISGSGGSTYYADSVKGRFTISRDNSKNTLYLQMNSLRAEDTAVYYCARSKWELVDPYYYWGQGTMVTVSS
VL: NFMLTQPHSVSESPGKTITISCTRSSGSIAGNYVQWYQQRPGSAPIIVIYEDNQRPSGVPDRFSGSIDSSSNSASLTISRLKTEDEADYYCQSYEASNVVFGGGTKLTVL
notes: as the VH stretch before the HCDR3 of m14; HCDR3 of 3_7; T to S at position 1 and D to Y at position 10 against the wild type; as the VH stretch after the HCDR3 of m14; as the light chain of m14; IgG4; also called IgG 3_7; source: EBNA 293 cells, cotransfected (pEU8.2 and pEU4.2), purified from the medium (protein A); copies: 2 + 2

T1 sequence (Q9NZQ7 19-238): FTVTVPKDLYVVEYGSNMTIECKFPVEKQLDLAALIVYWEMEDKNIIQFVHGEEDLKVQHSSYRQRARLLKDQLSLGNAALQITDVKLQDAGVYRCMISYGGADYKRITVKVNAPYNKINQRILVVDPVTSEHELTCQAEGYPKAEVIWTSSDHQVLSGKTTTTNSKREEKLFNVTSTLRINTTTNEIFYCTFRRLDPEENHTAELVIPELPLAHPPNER

One experiment concerns the target T1, recombinant human PD-L1, Fc-tagged (rhPD-L1-Fc) (Homo sapiens, UniProt Q9NZQ7).
T1 construct: human PD-L1 (programmed death ligand-1) extracellular domain, linked to the Fc region of human IgG1; soluble disulfide-linked homodimer; also called dimeric rhPD-L1-Fc; dimeric PD-L1; source: bought: R&D Systems
Nature of the experiment: flow cytometry on cells; scFv displayed on yeast, titration with rhPD-L1-Fc (10 pM to 10 nM plus 30 nM), PBS 0.5% BSA, room temperature; binding MFI normalised on scFv expression; apparent KD = half-saturating antigen concentration. The settings on record: one partner purified.
Regarding B1, the Kd is less than 1000 pM.

Consider B2, for which the Kd was less than 1000 pM.

Take B3: the Kd is less than 1000 pM.

Take B4: the Kd is less than 1000 pM.

On to B5, for which the Kd was less than 1000 pM.

As to B6, the Kd is less than 1000 pM.

Another experiment addresses T1, recombinant human PD-L1, Fc-tagged …. Nature of the experiment: SPR; Biacore X100, 25°C, HBS-EP pH 7.4; dimeric rhPD-L1-Fc (300 RU) immobilised by amine coupling on CM5, IgG as analyte (12.5-0.39 nM wild type, 6.25-0.39 nM mutated mAbs); 1:1 Langmuir; apparent constants (KD2) of bivalent binding. The settings on record: both partners purified. In general terms: Surface plasmon resonance follows binding to a sensor surface in real time, without labels.
As for B7, the Kd was found to be 172 pM, the koff came out at 0.000176 s⁻¹ and the kon amounted to 1.05e+06 M⁻¹ s⁻¹.

As for B8, the Kd came out at 165 pM, the dissociation rate constant (koff) turned out to be 0.000159 s⁻¹ and the kon was 1.01e+06 M⁻¹ s⁻¹.

In the case of B9, the Kd was 174 pM, the koff was determined as 0.000193 s⁻¹ and the kon came to 1.14e+06 M⁻¹ s⁻¹.

Take B10: the Kd came to 139 pM, the koff was 0.000148 s⁻¹ and the association rate constant (kon) was 1.1e+06 M⁻¹ s⁻¹.

Turning to B11, the Kd was determined as 287 pM, the koff turned out to be 0.000287 s⁻¹ and the kon was found to be 1.03e+06 M⁻¹ s⁻¹.
